# Measured values: patent US20160264664A1 (Ablynx, published 2016)
# Read-outs that look alike come from different tables or passages of the source.
# T1: mouse P2X7 (mouse, UniProt Q9Z1M0 1-595)
# T1 sequence: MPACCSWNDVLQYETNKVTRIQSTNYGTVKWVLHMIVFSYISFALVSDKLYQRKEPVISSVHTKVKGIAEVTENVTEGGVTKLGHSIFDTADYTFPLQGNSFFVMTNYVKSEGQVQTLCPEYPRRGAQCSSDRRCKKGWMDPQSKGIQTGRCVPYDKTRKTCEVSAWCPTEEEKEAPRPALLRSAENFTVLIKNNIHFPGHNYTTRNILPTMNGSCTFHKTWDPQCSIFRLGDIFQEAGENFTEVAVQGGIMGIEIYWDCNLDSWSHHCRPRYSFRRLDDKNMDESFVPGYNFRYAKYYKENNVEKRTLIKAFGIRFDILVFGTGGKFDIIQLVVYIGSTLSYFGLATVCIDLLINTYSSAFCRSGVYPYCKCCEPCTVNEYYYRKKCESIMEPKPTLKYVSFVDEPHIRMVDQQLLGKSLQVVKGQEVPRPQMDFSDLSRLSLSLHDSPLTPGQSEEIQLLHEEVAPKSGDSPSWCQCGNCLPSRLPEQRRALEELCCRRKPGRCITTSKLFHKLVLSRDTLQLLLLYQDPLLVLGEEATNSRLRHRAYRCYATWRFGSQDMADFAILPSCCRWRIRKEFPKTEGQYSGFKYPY
# T2: human P2X7 (human, UniProt Q99572 1-595)
# T2 construct: on transfected Hek293 cells; also called hP2X7
# T2 sequence: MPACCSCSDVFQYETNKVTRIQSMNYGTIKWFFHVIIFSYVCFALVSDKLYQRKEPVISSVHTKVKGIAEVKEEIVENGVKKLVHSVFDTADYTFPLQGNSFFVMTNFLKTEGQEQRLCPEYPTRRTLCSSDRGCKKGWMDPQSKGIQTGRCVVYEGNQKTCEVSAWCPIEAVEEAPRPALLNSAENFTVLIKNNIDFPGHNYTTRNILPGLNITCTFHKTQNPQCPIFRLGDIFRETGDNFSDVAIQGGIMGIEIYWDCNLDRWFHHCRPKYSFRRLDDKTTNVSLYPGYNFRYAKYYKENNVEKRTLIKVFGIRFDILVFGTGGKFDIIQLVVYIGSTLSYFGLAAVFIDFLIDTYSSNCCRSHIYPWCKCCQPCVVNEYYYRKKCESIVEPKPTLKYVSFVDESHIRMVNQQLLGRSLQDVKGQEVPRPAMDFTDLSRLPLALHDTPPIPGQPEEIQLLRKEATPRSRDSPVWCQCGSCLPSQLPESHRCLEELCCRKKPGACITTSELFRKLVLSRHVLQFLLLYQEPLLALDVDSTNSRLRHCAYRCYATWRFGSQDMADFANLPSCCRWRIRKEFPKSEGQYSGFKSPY
# T3: human P2X4 (human, UniProt Q99571 1-388)
# T3 construct: whole, on cells; also called hP2X4
# T3 sequence (looked up): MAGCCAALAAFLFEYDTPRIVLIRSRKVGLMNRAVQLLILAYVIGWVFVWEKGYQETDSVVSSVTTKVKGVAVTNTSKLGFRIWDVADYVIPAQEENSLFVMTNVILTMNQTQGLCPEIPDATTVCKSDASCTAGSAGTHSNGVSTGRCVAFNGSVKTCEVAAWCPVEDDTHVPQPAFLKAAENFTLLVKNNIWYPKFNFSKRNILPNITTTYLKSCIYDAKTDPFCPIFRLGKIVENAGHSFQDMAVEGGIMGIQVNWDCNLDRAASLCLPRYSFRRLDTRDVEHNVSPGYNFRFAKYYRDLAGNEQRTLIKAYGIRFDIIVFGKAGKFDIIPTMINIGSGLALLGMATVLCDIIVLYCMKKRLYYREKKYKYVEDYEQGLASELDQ
# B1: P2X7PMP13A7 (VHH)
# VHH: EVQLVESGGGLVQPGESLRLSCTASRFMLDYYDIGWFRQAPGKEREGVSCRFTNDGSTAYADSVKGRFTISRDIVKHTVYLQMNSLQPEDTAVYYCAAGPLTKRRQCVPGDFSMDFWGEGTLVTVSS
# notes: family 22; on phage or c-myc/His6-tagged in assays
# B2: human chemokine receptor CXCR4 (receptor, UniProt P61073 1-352, looked up)
# chain: MEGISIYTSDNYTEEMGSGDYDSMKEPCFREENANFNKIFLPTIYSIIFLTGIVGNGLVILVMGYQKKLRSMTDKYRLHLSVADLLFVITLPFWAVDAVANWYFGNFLCKAVHVIYTVNLYSSVLILAFISLDRYLAIVHATNSQRPRKLLAEKVVYVGVWIPALLLTIPDFIFANVSEADDRYICDRFYPNDLWVVVFQFQHIMVGLILPGIVILSCYCIIISKLSHSKGHQKRKALKTTVILILAFFACWLPYYIGISIDSFILLEIIKQGCEFENTVHKWISITEALAFFHCCLNPILYAFLGAKFKTSAQHALTSVSRGSSLKILSKGKRGGHSSVSTESESSSFHSS
# notes: whole, on cells; on transfected HEK293 or camelid (CAKI) cells, or as membrane vesicles / membrane extracts of transfected HEK293 cells; also called hCXCR4
# Tests used:
# mouse P2X7 [1] = target: T1, mouse P2X7; experiment: cell-based or functional assay
# mouse P2X7 [2] = target: T1, mouse P2X7; experiment: cell-based or functional assay; remark: listed apart in the source
# human P2X7 = target: T2, human P2X7; experiment: flow cytometry, Nanobody pre-incubated with anti-Myc-FITC
# human P2X4 = target: T3, human P2X4; experiment: as above
# mouse P2X7 [3] = target: T1, mouse P2X7; experiment: flow cytometry, purified Nanobody titrated on mP2X7-CHO cells
# mouse P2X7 [4] = target: T1, mouse P2X7; experiment: phage ELISA on fixed mP2X7-CHO vs untransfected CHO cells;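 further: phage culture supernatant diluted 10-fold, applied for 1 h to paraformaldehyde-fixed, BSA-blocked cells in 96-well plates, with bound phage read via HRP-linked anti-M13 antibody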
# Procedure: Sub-confluent cells were rinsed with PBS and fixed using 4% paraformaldehyde in PBS for 10 minutes at RT. Fixed cells were washed three times with PBS, and blocked with 2% BSA in PBS for 2 hours. Following blocking, 10-fold diluted culture supernatant containing phage was added and incubated for 1 hour. Cell-bound phage was detected via mouse anti-M13-HRP-conjugate (GE Healthcare, Cat nr. E2886). Rat mAb Hano43 was used as positive control.
# mouse P2X7 [5] = target: T1, mouse P2X7; experiment: cell-based or functional assay; remark: listed apart in the source
# Human CXCL12/SDF-1 alpha = target: T4, Human CXCL12/SDF-1 alpha (human, UniProt P48061-2 22-89, biotinylated or 125I-labelled); experiment: flow cytometry (Fluorokine kit) on CXCR4-transfected HEK293 but not parental HEK293 cells
# T4 construct: also called CXCL12/SDF-la; SDF-1
# T4 sequence (P48061 22-89 limits assumed): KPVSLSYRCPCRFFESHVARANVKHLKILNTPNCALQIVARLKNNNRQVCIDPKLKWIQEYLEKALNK
# Source text: To verify the functional expression of human CXCR4, the endotoxin-free pVAX1-CXCR4 plasmid was transiently transfected into HEK293 cells using Eugene (Roche) to monitor in vitro extracellular expression via flow cytometry.
Binder,IC50 (read off the curve) (mouse P2X7 [1]) [nM],"ATP IC50 by 2 uM NB (head prints 'mM'; ligand titration at fixed Nanobody, CD62L shedding, Yac-1 cells) (mouse P2X7 [2]) [mM]","IC50 (nM) against 20 uM NAD (CD62L shedding, Yac-1 cells) (mouse P2X7 [2]) [nM]","IC50 (nM) against 100 uM ATP (CD62L shedding, Yac-1 cells) (mouse P2X7 [2]) [nM]",binding result (human P2X7),binding result (human P2X4),EC50 (mouse P2X7 [3]) [nM],Fold Cho P2X7/wt (phage ELISA) (mouse P2X7 [4]) [fold],IC50 (read off the curve) (mouse P2X7 [5]) [nM],binding result (Human CXCL12/SDF-1 alpha)
B1,~1,0.565,11,6,no binding (tested: 147 nM),no binding (tested: 147 nM),3.4,25,~4,
B2,,,,,,,,,,binds
